Measurements: the RNAGym collection of RNA variant scans (doi:10.7554/elife.80360)

B1: Hairpin Ribozyme (parent)
chain: GUCCUCUUUCACGUGCGCGUGAAAGAGAGAAGUGAACCAGAGAAACACACGUUGUGGUAUAUUACCUGGUA

Variants of: B1
Assay: self-cleavage, relative activity (ratio to wild type); higher = more cleavage; co-transcriptional

Compared with C18A G68C, C18A C37A is higher in self-cleavage: 0.18 for the first, 0.315 for the second.

Compared with C18A A36U, C18A A36G is higher in self-cleavage: 0.593 for the first, 0.972 for the second.

Compared with G17C U20G, G17C U20A is lower in self-cleavage: 0.904 for the first, 0.736 for the second.

First: C18U A61G
Second: G17A U60G
The self-cleavage of the first is lower: 0.276 for the first, 0.581 for the second.

Going from C18U G51C to C18U G51A, the self-cleavage rises from 0.881 to 1.26.

First: G17U A44C
Second: G17U A44U
The self-cleavage of the first is higher: 0.152 for the first, 0.0838 for the second.

Compared with C18A U63C, G17U G34C is higher in self-cleavage: 0.0808 for the first, 1.5 for the second.

First: G17U G34U
Second: G17C G25C
The self-cleavage of the first is higher: 1.29 for the first, 0.3 for the second.

Compared with G17U U55A, G17A U63A is higher in self-cleavage: 0.142 for the first, 0.19 for the second.

Going from G17U A36C to G17U A36G, the self-cleavage rises from 0.587 to 1.06.

Compared with C18G A24U, C18A A71C is higher in self-cleavage: 0.729 for the first, 1.34 for the second.

First: C18A A71U
Second: C18A A45C
The self-cleavage of the first is higher: 0.831 for the first, 0.173 for the second.

Going from G17A U58A to C18U G68C, the self-cleavage falls from 0.709 to 0.221.

First: C18U G68A
Second: C18U G68U
The self-cleavage of the first is lower: 0.224 for the first, 0.307 for the second.

First: G17U G21C
Second: C18U A45C
The self-cleavage of the first is higher: 0.661 for the first, 0.218 for the second.

Going from C18A A31C to C18U C65A, the self-cleavage rises from 0.192 to 0.88.

Going from C18U C65G to G19A U60A, the self-cleavage rises from 0.27 to 0.658.

Compared with G19A U60G, G19A U60C is higher in self-cleavage: 0.448 for the first, 1.05 for the second.

Going from C18U A39G to G17C G51U, the self-cleavage rises from 0.375 to 0.679.

First: C18A U53C
Second: G19C A49C
The self-cleavage of the first is higher: 1.01 for the first, 0.0455 for the second.

First: G19C A49G
Second: C18U U63A
The self-cleavage of the first is higher: 0.366 for the first, 0.229 for the second.

Going from C18U U63C to C18U U63G, the self-cleavage rises from 0.18 to 0.278.

Compared with G19A A26G, G19A A26C is lower in self-cleavage: 0.932 for the first, 0.541 for the second.

Going from C18U A23G to G19A A64C, the self-cleavage falls from 0.857 to 0.181.

Going from G17C C38A to C18A G54A, the self-cleavage rises from 0.199 to 0.591.

First: G19C A26G
Second: G19A A35U
The self-cleavage of the first is higher: 0.692 for the first, 0.607 for the second.

First: G19A A35G
Second: G19A A35C
The self-cleavage of the first is higher: 1.01 for the first, 0.987 for the second.

Going from C18U A28G to G17C U60C, the self-cleavage falls from 1.26 to 1.08.

Going from G17C C46G to G17C C46A, the self-cleavage rises from 0.074 to 0.113.

Going from G17C U55G to G17U G51U, the self-cleavage rises from 0.196 to 0.798.

Compared with C18G C48U, C18G C48G is higher in self-cleavage: 0.11 for the first, 0.138 for the second.

First: C18G C48A
Second: C18A U67C
The self-cleavage of the first is lower: 0.146 for the first, 0.274 for the second.

Going from C18U A59G to G19A G21C, the self-cleavage rises from 0.148 to 0.673.

Compared with G19A G42C, C18G A61U is lower in self-cleavage: 0.289 for the first, 0.247 for the second.

First: G17U U58C
Second: G17U U58A
The self-cleavage of the first is higher: 1.13 for the first, 0.593 for the second.

Compared with G17U U58G, G17C A45G is lower in self-cleavage: 0.644 for the first, 0.112 for the second.

First: C18U G34U
Second: C18U A64G
The self-cleavage of the first is higher: 1.46 for the first, 0.71 for the second.

Compared with C18U A64C, C18U A64U is lower in self-cleavage: 0.216 for the first, 0.109 for the second.

Compared with G17C A22G, G17U U60G is lower in self-cleavage: 0.552 for the first, 0.343 for the second.

First: C18A A39G
Second: C18G A26C
The self-cleavage of the first is lower: 0.395 for the first, 0.489 for the second.

Going from C18G A36G to G17A G69C, the self-cleavage falls from 0.68 to 0.249.

First: G19A G25C
Second: G19A G25U
The self-cleavage of the first is lower: 0.419 for the first, 0.441 for the second.

First: C18U C50A
Second: G17U A59U
The self-cleavage of the first is higher: 0.314 for the first, 0.274 for the second.

Compared with G19C A23C, G17U A28U is lower in self-cleavage: 0.696 for the first, 0.51 for the second.

First: G17U A28C
Second: G17U A47U
The self-cleavage of the first is higher: 0.383 for the first, 0.101 for the second.

Going from G17C G69U to C18U U70C, the self-cleavage rises from 0.196 to 0.984.

Going from C18U G29U to C18U G29C, the self-cleavage falls from 0.172 to 0.116.

Going from C18A G42A to C18A A30G, the self-cleavage falls from 0.203 to 0.115.

First: G19A A30C
Second: G19A A30G
The self-cleavage of the first is lower: 0.146 for the first, 0.149 for the second.

First: G17U A31C
Second: G17U A31U
The self-cleavage of the first is higher: 0.224 for the first, 0.104 for the second.

Going from G17C C48U to C18A U70G, the self-cleavage rises from 0.148 to 0.862.

First: C18G U52G
Second: C18A G27A
The self-cleavage of the first is higher: 0.538 for the first, 0.534 for the second.

First: C18A G27C
Second: G17C G19C
The self-cleavage of the first is lower: 0.165 for the first, 0.68 for the second.

Compared with G17C G19A, C18A A43C is lower in self-cleavage: 0.836 for the first, 0.107 for the second.

Compared with C18A A43U, C18A U58C is higher in self-cleavage: 0.196 for the first, 1.07 for the second.

First: G19A A43U
Second: G19A A43G
The self-cleavage of the first is lower: 0.102 for the first, 0.16 for the second.

Compared with G19A C65U, G19A C65A is higher in self-cleavage: 0.265 for the first, 0.748 for the second.

Going from G19A C65G to G17C A61C, the self-cleavage falls from 0.324 to 0.078.

First: G17C A61G
Second: G19C A36G
The self-cleavage of the first is lower: 0.225 for the first, 0.766 for the second.

Going from G17C U52C to G19A A47G, the self-cleavage falls from 0.778 to 0.183.

Going from G19A A23G to G17U A22C, the self-cleavage falls from 0.948 to 0.703.

Compared with G17U A22G, C18U A24C is higher in self-cleavage: 0.831 for the first, 1.21 for the second.

Going from C18G A47U to C18G A47C, the self-cleavage rises from 0.0785 to 0.242.

Going from C18U A44U to C18U A44G, the self-cleavage falls from 0.15 to 0.113.

Compared with C18G U67C, C18G U67A is higher in self-cleavage: 0.212 for the first, 0.229 for the second.

Going from G17U G19U to C18U G27U, the self-cleavage falls from 0.581 to 0.303.

First: G17C G57A
Second: G17C G57U
The self-cleavage of the first is lower: 0.148 for the first, 0.222 for the second.

Going from C18A A41G to C18A G29A, the self-cleavage falls from 0.76 to 0.149.

First: C18A G29C
Second: G17U G69A
The self-cleavage of the first is lower: 0.118 for the first, 0.382 for the second.

Going from G17U U67C to G17C G29A, the self-cleavage falls from 0.184 to 0.12.

First: C18A G32C
Second: C18U G32C
The self-cleavage of the first is lower: 0.0795 for the first, 0.142 for the second.

Compared with G19A G29U, G17U A43G is lower in self-cleavage: 0.21 for the first, 0.0761 for the second.

Compared with G17U A41C, G17U A41G is higher in self-cleavage: 0.997 for the first, 1.08 for the second.

Going from G19A U55G to G19A U55C, the self-cleavage falls from 0.216 to 0.123.

Compared with G19A U55A, G17C C50G is lower in self-cleavage: 0.29 for the first, 0.132 for the second.

Compared with G19A U67C, C18G U63A is lower in self-cleavage: 0.186 for the first, 0.147 for the second.

Compared with G17A U55G, C18U U58G is higher in self-cleavage: 0.161 for the first, 0.991 for the second.

Going from C18U U58C to G17C U62G, the self-cleavage falls from 1.17 to 0.216.

Compared with C18A A35G, C18A A35U is lower in self-cleavage: 1.05 for the first, 0.734 for the second.

Going from G17C G56A to G19A U52C, the self-cleavage rises from 0.0625 to 0.835.

Compared with G17U C66G, G17C A41C is higher in self-cleavage: 0.158 for the first, 0.983 for the second.

Compared with C18G U70A, G17A U70A is higher in self-cleavage: 0.885 for the first, 0.897 for the second.

Compared with G17A U70C, G17U A45G is lower in self-cleavage: 0.937 for the first, 0.0728 for the second.

For G17U A45U, the self-cleavage was 0.176.
